Patent US20250002588A1 (DIAGONAL THERAPEUTICS, published 2025)
Numbering of substitutions follows the chain as printed.

B1: DGL268 (bispecific antibody)
chain 1: EVQLLESGGGLVQPGGSLRLSCAASGFTFSIYAMSWVRQAPGKGLEWVSAISGSGGSTYYADSVKGRFTISRDNSKNTLYLQMNSLRAEDTAVYYCARDFDYWGQGTLVTVTSSGGGGSGGGGSGGGGSQSVLTQPPSASGTPGQRVTISCSGSSSNIGSNYVYWYQQLPGTAPKLLIYGNINRPSGVPDRFSGSKSGTSASLAISGLRSEDEADYYCAAWDDSLNGRVFGGGTKLTVLGGGGSGGGGSGGGGSGVECPPCPAPPVAGPSVFLFPPKPKDTLMISRTPEVTCVVVDVSHEDPEVQFNWYVDGVEVHNAKTKPREEQFNSTFRVVSVLTVVHQDWLNGKEYKCKVSNKGLPAPIEKTISKTKGQPREPQVYTLPPCREEMTKNQVSLWCLVKGFYPSDIAVEWESNGQPENNYKTTPPMLDSDGSFFLYSKLTVDKSRWQQGNVFSCSVMHEALHNHYTQKSLSLSPG
chain 2: B1 chain 1 with Y380C, C385S, W397S, L399A, Y438V
B2: DGL273 (bispecific antibody)
chain 1: EVQLLESGGGLVQPGGSLRLSCAASGFTFSIYAMSWVRQAPGKGLEWVSAISGSGGSTYYADSVKGRFTISRDNSKNTLYLQMNSLRAEDTAVYYCARDFDYWGQGTLVTVTSSGGGGSGGGGSGGGGSQSVLTQPPSASGTPGQRVTISCSGSSSNIGSNYVYWYQQLPGTAPKLLIYGNINRPSGVPDRFSGSKSGTSASLAISGLRSEDEADYYCAAWDDSLNGRVFGGGTKLTVLCPPCPAPEAAGAPSVFLFPPKPKDTLMISRTPEVTCVVVDVSHEDPEVKFNWYVDGVEVHNAKTKPREEQYNSTYRVVSVLTVLHQDWLNGKEYKCKVSNKALPAPIEKTISKAKGQPREPQVYTLPPCRDELTKNQVSLWCLVKGFYPSDIAVEWESNGQPENNYKTTPPVLDSDGSFFLYSKLTVDKSRWQQGNVFSCSVMHEALHNHYTQKSLSLSPGEPEA
chain 2: EVQLLESGGGLVQPGGSLRLSCAASGFTFSNAWMNWVRQAPGKGLEWVSSISSSSSYIYYADSVKGRFTISRDNSKNTLYLQMNSLRAEDTAVYYCARAVAAGGMFWGLDQWGQGTLVTVTSSGGGGSGGGGSGGGGSQSVLTQPPSASGTPGQRVTISCSGSRSNIGSNSVHWYQQLPGTAPKLLIYGNSNRPSGVPDRFSGSKSGTSASLAISGLRSEDEADYYCQSYDSSLNDHVVFGGGTKLTVLCPPCPAPEAAGAPSVFLFPPKPKDTLMISRTPEVTCVVVDVSHEDPEVKFNWYVDGVEVHNAKTKPREEQYNSTYRVVSVLTVLHQDWLNGKEYKCKVSNKALPAPIEKTISKAKGQPREPQVCTLPPSRDELTKNQVSLSCAVKGFYPSDIAVEWESNGQPENNYKTTPPVLDSDGSFFLVSKLTVDKSRWQQGNVFSCSVMHEALHNHYTQKSLSLSPGWSHPQFEK
B3: DGL271 (bispecific antibody)
chain 1: EVQLLESGGGLVQPGGSLRLSCAASGFTFSDYYMTWIRQAPGKGLEWVSSISGGSTYYADSRKGRFTISRDNSENTLYLQMNSLRAEDTAVYYCARDFGVAGWFGQYGMDVWGQGTLVTVSSGGGGSGGGGSGGGGSQSVLTQPPSASGTPGQRVTISCTGSSSNIGAGYDVHWYQQLPGTAPKLLIYRSNQRPSGVPDRFSGSKSGTSASLAISGLRSEDEADYYCSSYAGNYNLVFGGGTKLTVLGGGGSGGGGSGGGGSGVECPPCPAPPVAGPSVFLFPPKPKDTLMISRTPEVTCVVVDVSHEDPEVQFNWYVDGVEVHNAKTKPREEQFNSTFRVVSVLTVVHQDWLNGKEYKCKVSNKGLPAPIEKTISKTKGQPREPQVYTLPPCREEMTKNQVSLWCLVKGFYPSDIAVEWESNGQPENNYKTTPPMLDSDGSFFLYSKLTVDKSRWQQGNVFSCSVMHEALHNHYTQKSLSLSPG
chain 2: B3 chain 1 with Y388C, C393S, W405S, L407A, Y446V
B4: DGL270 (bispecific antibody)
chain 1: EVQLLESGGGLVQPGGSLRLSCAASGFTFSSYAMSWVRQAPGKGLEWVANINQDGSEKNYVDSMRGRFTISRDNSKNTLYLQMNSLRAEDTAVYYCAREFDYWGQGTLVTVTSSGGGGSGGGGSGGGGSQSVLAQPPSASGTPGQRVTISCSGSSSNIGSNYVYWYQQLPGTAPKLLIYGNNKRPSGVPDRFSGSKSGTSASLAISGLRSEDEADYYCAAWDDSLNGRVFGGGTKLTVLGGGGSGGGGSGGGGSGVECPPCPAPPVAGPSVFLFPPKPKDTLMISRTPEVTCVVVDVSHEDPEVQFNWYVDGVEVHNAKTKPREEQFNSTFRVVSVLTVVHQDWLNGKEYKCKVSNKGLPAPIEKTISKTKGQPREPQVYTLPPCREEMTKNQVSLWCLVKGFYPSDIAVEWESNGQPENNYKTTPPMLDSDGSFFLYSKLTVDKSRWQQGNVFSCSVMHEALHNHYTQKSLSLSPG
chain 2: B4 chain 1 with Y380C, C385S, W397S, L399A, Y438V
B5: DGL274 (bispecific antibody)
chain 1: EVQLLESGGGLVQPGGSLRLSCAASGFTFSIYAMSWVRQAPGKGLEWVSAISGSGGSTYYADSVKGRFTISRDNSKNTLYLQMNSLRAEDTAVYYCARDFDYWGQGTLVTVTSSGGGGSGGGGSGGGGSQSVLTQPPSASGTPGQRVTISCSGSSSNIGSNYVYWYQQLPGTAPKLLIYGNINRPSGVPDRFSGSKSGTSASLAISGLRSEDEADYYCAAWDDSLNGRVFGGGTKLTVLPLAPCPPCPAPEAAGAPSVFLFPPKPKDTLMISRTPEVTCVVVDVSHEDPEVKFNWYVDGVEVHNAKTKPREEQYNSTYRVVSVLTVLHQDWLNGKEYKCKVSNKALPAPIEKTISKAKGQPREPQVYTLPPCRDELTKNQVSLWCLVKGFYPSDIAVEWESNGQPENNYKTTPPVLDSDGSFFLYSKLTVDKSRWQQGNVFSCSVMHEALHNHYTQKSLSLSPGEPEA
chain 2: EVQLLESGGGLVQPGGSLRLSCAASGFTFSNAWMNWVRQAPGKGLEWVSSISSSSSYIYYADSVKGRFTISRDNSKNTLYLQMNSLRAEDTAVYYCARAVAAGGMFWGLDQWGQGTLVTVTSSGGGGSGGGGSGGGGSQSVLTQPPSASGTPGQRVTISCSGSRSNIGSNSVHWYQQLPGTAPKLLIYGNSNRPSGVPDRFSGSKSGTSASLAISGLRSEDEADYYCQSYDSSLNDHVVFGGGTKLTVLPLAPCPPCPAPEAAGAPSVFLFPPKPKDTLMISRTPEVTCVVVDVSHEDPEVKFNWYVDGVEVHNAKTKPREEQYNSTYRVVSVLTVLHQDWLNGKEYKCKVSNKALPAPIEKTISKAKGQPREPQVCTLPPSRDELTKNQVSLSCAVKGFYPSDIAVEWESNGQPENNYKTTPPVLDSDGSFFLVSKLTVDKSRWQQGNVFSCSVMHEALHNHYTQKSLSLSPGWSHPQFEK
B6: DGL269 (bispecific antibody)
chain 1: EVQLLESGGGLVQPGGSLRLSCAASGFTFSNAWMNWVRQAPGKGLEWVSSISSSSSYIYYADSVKGRFTISRDNSKNTLYLQMNSLRAEDTAVYYCARAVAAGGMFWGLDQWGQGTLVTVTSSGGGGSGGGGSGGGGSQSVLTQPPSASGTPGQRVTISCSGSRSNIGSNSVHWYQQLPGTAPKLLIYGNSNRPSGVPDRFSGSKSGTSASLAISGLRSEDEADYYCQSYDSSLNDHVVFGGGTKLTVLGGGGSGGGGSGGGGSGVECPPCPAPPVAGPSVFLFPPKPKDTLMISRTPEVTCVVVDVSHEDPEVQFNWYVDGVEVHNAKTKPREEQFNSTFRVVSVLTVVHQDWLNGKEYKCKVSNKGLPAPIEKTISKTKGQPREPQVYTLPPCREEMTKNQVSLWCLVKGFYPSDIAVEWESNGQPENNYKTTPPMLDSDGSFFLYSKLTVDKSRWQQGNVFSCSVMHEALHNHYTQKSLSLSPG
chain 2: B6 chain 1 with Y390C, C395S, W407S, L409A, Y448V

Target: ALK-1/BMPR-2 receptor pair of the PathHunter U2Os dimerization cells (DiscoverX 93-0962C3) (UniProt P37023 22-503; Q13873 27-1038)
Assay: cell-based or functional assay

ALK-1/BMPR-2 receptor pair of the PathHunter U2Os dimerization cells (DiscoverX 93-0962C3), sequence (P37023 22-503, chain 1 of 2): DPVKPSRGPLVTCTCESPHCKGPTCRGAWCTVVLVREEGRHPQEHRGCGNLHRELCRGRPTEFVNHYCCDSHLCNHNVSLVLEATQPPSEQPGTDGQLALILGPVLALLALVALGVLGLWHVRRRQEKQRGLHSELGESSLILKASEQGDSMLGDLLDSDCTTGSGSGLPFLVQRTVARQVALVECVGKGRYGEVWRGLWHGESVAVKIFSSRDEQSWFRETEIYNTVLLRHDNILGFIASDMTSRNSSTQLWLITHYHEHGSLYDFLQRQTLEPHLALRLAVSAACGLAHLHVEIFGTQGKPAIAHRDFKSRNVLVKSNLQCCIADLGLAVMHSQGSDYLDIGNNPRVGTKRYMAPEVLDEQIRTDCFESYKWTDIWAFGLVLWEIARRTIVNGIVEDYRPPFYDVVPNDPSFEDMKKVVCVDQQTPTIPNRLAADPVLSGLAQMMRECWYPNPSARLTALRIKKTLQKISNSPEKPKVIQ
ALK-1/BMPR-2 receptor pair of the PathHunter U2Os dimerization cells (DiscoverX 93-0962C3), sequence (Q13873 27-1038, chain 2 of 2): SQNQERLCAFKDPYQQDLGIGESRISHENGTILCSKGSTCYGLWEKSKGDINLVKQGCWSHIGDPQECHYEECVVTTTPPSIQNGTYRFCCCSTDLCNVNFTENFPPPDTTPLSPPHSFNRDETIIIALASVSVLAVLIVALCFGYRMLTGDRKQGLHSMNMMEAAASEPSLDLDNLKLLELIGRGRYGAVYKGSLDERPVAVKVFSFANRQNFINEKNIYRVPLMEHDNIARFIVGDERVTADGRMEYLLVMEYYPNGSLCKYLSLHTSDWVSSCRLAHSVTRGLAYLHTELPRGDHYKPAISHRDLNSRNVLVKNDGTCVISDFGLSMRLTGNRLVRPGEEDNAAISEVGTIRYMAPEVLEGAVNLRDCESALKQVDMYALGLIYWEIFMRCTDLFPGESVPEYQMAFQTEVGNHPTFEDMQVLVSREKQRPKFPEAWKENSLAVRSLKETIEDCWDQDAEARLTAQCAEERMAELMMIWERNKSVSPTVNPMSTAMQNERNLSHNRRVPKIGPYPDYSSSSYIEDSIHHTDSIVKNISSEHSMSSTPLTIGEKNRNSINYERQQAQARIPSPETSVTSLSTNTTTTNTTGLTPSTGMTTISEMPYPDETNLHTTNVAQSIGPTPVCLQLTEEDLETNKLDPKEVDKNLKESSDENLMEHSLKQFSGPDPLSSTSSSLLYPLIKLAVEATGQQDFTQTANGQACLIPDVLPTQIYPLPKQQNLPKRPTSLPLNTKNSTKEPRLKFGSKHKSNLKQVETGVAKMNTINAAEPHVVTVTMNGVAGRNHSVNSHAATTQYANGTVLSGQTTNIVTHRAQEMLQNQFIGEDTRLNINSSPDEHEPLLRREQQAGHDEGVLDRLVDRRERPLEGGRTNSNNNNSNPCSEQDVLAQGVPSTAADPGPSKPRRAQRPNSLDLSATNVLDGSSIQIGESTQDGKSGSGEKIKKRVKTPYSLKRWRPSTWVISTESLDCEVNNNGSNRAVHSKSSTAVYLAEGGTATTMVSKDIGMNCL

Row | % Emax BMP9 [%] | EC50 [nM] | Emax (RLU) | Binder
1 | 1 | 0.1 | 35200 | B1
2 | 46 | 4.2 | 1.22e+06 | B2
3 | 2 |  | 55900 | B3
4 | 0 |  | 9200 | B4
5 | 47 | 1.7 | 1.25e+06 | B5
6 | 0 |  | -8300 | B6
